This assay has as its target ATP-binding cassette transporter A1 (ABCA1) on RAW 264.7 murine macrophage cells (murine) (UniProt P41233). Kind of assay: cell-based or functional assay.
Sequence of UniProt P41233 (P41233 whole entry): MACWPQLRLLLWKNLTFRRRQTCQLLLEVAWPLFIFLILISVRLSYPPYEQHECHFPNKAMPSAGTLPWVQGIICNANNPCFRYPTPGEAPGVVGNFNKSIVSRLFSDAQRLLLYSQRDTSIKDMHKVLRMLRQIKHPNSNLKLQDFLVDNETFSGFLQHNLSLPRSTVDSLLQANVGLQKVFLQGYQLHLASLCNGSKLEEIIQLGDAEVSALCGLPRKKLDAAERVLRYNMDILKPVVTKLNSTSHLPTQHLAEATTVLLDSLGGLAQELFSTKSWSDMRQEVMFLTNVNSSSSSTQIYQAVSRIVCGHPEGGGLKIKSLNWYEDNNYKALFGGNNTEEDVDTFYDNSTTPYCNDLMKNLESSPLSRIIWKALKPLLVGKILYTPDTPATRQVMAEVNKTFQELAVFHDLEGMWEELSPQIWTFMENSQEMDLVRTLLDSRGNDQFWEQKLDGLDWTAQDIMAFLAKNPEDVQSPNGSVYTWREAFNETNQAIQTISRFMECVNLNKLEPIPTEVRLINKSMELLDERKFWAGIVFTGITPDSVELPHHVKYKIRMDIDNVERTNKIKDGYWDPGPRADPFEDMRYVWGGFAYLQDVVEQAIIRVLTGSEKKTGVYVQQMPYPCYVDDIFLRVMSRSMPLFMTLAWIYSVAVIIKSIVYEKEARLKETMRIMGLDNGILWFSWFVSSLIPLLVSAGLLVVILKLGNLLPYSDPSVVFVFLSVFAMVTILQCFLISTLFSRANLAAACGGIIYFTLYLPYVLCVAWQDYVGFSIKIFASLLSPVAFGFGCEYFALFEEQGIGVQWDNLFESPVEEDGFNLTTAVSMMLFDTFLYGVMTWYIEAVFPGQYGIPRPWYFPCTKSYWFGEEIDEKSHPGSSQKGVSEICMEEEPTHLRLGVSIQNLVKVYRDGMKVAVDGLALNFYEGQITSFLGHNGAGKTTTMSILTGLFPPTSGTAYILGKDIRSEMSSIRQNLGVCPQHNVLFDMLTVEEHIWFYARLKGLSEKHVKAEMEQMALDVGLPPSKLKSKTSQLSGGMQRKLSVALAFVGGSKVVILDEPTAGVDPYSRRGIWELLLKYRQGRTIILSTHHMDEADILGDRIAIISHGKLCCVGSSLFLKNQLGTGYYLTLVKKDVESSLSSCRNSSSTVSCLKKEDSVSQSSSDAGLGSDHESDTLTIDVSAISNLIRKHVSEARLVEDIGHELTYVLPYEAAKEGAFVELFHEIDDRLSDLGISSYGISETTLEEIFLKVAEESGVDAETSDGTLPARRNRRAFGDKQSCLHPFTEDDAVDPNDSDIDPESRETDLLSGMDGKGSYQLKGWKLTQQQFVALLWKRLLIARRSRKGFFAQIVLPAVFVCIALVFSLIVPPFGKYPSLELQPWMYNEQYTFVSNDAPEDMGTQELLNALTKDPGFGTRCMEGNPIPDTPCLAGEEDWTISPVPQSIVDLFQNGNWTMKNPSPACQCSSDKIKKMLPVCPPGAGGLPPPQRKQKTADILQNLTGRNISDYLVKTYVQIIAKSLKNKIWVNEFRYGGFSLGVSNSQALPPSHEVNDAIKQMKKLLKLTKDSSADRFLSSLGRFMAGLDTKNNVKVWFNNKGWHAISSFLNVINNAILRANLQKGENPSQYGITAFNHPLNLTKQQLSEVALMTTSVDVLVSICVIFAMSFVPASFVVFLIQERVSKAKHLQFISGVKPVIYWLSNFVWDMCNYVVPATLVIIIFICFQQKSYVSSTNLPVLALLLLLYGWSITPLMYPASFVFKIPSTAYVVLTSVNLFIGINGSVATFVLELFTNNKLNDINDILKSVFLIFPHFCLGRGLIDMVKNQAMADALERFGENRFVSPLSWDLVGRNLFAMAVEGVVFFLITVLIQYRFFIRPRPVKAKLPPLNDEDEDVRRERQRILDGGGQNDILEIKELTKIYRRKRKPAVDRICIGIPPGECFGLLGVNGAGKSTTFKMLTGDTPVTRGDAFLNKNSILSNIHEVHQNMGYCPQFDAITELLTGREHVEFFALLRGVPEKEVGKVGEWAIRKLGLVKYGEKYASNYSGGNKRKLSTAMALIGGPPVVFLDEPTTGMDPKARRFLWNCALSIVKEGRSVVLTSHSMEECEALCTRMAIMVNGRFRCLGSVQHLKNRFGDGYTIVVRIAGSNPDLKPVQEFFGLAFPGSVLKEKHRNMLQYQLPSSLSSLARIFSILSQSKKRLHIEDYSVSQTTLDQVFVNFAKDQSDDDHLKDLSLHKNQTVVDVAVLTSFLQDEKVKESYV

Take “recombinant wild type ApoA1 after MPO/HOCl-mediated oxidative damage (from UniProt P02647 25-267)”: the ABCA-1-dependent cholesterol efflux ability (reduction upon MPO/HOCl-mediated oxidative damage), RAW 264.7 cells, [3H]-cholesterol is 75 to 80%.

Source of the values: patent publication US20130137628A1.
